Measurements published in US20220288204A1, “DOSAGE AND ADMINISTRATION OF ANTI-ERBB3 (HER3) MONOCLONAL ANTIBODIES TO TREAT TUMORS ASSOCIATED WITH NEUREGULIN 1 (NRG1) GENE FUSIONS” (ELEVATION ONCOLOGY, INC., priority 2021, published 2022).

Tests used:
[1] = tested on: HER2, HER3, AKT, ERK1/2 phosphorylation and BIM in LUAD-0061AS3 PDX tumors; assay: Western blotting of PDX tumor lysates after single administration; assay type: in vivo, mice
Protocol: Characterization of the […] PDX model. H&E staining, TTF-1, and phospho-HER3 IHC (FIG. 5A, left to right). […] (FIG. 5B). Tumor volumes were measured twice weekly and plotted overtime. Results represent the mean±SEM. […] Western blotting was performed twice for each protein and representative immunoblots of phosphorylated (p) and total (t) proteins are shown (FIG. 5C).
Crushed PDX tumor samples were mixed with Matrigel (50%) and injected into the subcutaneous flank of 6-week-old female NSG (LUAD-0061AS3) or Balb/c nude (OV-10-0050) mice. When tumors reached approximately 100-150 mm3, mice were randomly assigned to groups of 5-8 and treatment was commenced. There were 2 mice per group with bilateral flank tumors for the protein phosphorylation/expression study in the LUAD-0061AS3 PDX model. Drugs were administered once, and then tumors were collected at 2, 24, and 168 hours posttreatment. Afatinib was administered by oral gavage once daily as a suspension (in 0.5% methylcellulose-0.4% Tween-80) on a 5-days-on and 2-days-off schedule. […] Mice were observed daily throughout the treatment period for signs of morbidity and mortality. Tumor length and width and animal weights were measured twice weekly. Tumor volume was calculated using the empirical formula V=length×width 2×0.52. The percentage change in tumor volume of each tumor was calculated using the formula [(V2−V1)/V1)]×100, where V1 is the starting tumor volume and V2 is the final tumor volume.
Protein phosphorylation was then detected by Western blotting of PDX tumor lysates.

[2] = tested on: HER3 and AKT phosphorylation in H6c7-ATP1B1-NRG1 cells; assay: Western blotting of HER3 and AKT phosphorylation; assay type: cell-based, human; conditions: serum-starved 24 hours
From the text: (§1) H6C7-EV (empty vector) and H6C7-ATP1B1-NRG1 cells were profiled for activated intracellular kinases using phospho-proteomic arrays (FIG. 7A). H6C7-EV and H6C7 cells with the indicated NRG1 fusions were profiled for activated receptor tyrosine kinases (RTK) using phospho-RTK arrays (FIG. 7B). Quantitation of phosphorylated EGFR, HER2, and HER3 is shown (FIG. 7C). Western blot analysis of cell extracts from H6C7-EV and H6C7 cells expressing NRG1 fusions (FIGS. 7D-E). […] All cells were serum-started for 24 hours prior to experimentation.
(§2) Models of isogenic pancreatic cancer cells with NRG1 fusions by lentiviral-mediated cDNA expression of ATP1B1-NRG1 and SLC3A2-NRG1 fusions in immortalized human pancreatic ductal cells (H6c7) were developed. […] Western blotting analysis was used to evaluate protein phosphorylation and expression. The presence of NRG1 fusions was confirmed by reverse transcription polymerase chain reaction (RT-PCR) and next-generation sequencing (NGS).
(§3) There was no regression of afatinib-treated pancreatic PDX tumors. […] This was confirmed using a human-specific GAPH antibody.

[3] = tested on: HER3 and AKT phosphorylation in H6c7-SLC3A2-NRG1 cells; assay: Western blotting of HER3 and AKT phosphorylation; assay type: cell-based, human; conditions: serum-starved 24 hours
From the text: as §1, §2, §3

CH-17-0068 PDX tumors = assay: Intrahepatic cholangiocarcinoma PDX model (RBPMS-NRG1); assay type: in vivo, mice; conditions: monotherapy seribantumab 5 mg and 10 mg per dose BIW vs afatinib 5 mg/kg QD
Protocol: Representative H&E-stained CH-17-0068 PDX tumor (FIG. 9A). Genomic alterations identified by RNAseq and corresponding investigational targeted therapies (FIG. 9B). […] Afatinib (5 mg/kg QD) or AG-120 (isocitrate dehydrogenase [IDH] inhibitor, 150 mg/kg twice daily [BID]) were then added to the indicated groups. Results represent the mean±SEM. Change in the volume of individual tumors on day 30 (FIG. 9D) or at the end of the study (FIG. 9E).
as §2

[4] = tested on: KRAS wt pancreatic ductal adenocarcinoma with ATP1B1-NRG1 gene fusion; assay: Compassionate access case, MoST program; assay type: in vivo, human
Protocol: FIGS. 10A-10B are representative computed tomography (CT) images of a liver metastasis in a patient with KRAS WT pancreatic cancer that harbors an ATP1B1-NRG1 gene fusion. The patient was treated with seribantumab.
In brief, patients with advanced solid tumors of any histology undergo molecular screening. Genomic alterations are reviewed at molecular tumor boards to identify appropriate biomarker-matched therapeutic sub-studies. Seven GI cancer patients with durable clinical benefit were identified by case review, including a patient with KRAS WT pancreatic cancer harboring an ATP1B1-NRG1 gene fusion. Neuregulin 1 (NRG1) gene fusion proteins are an important oncogenic driver, enriched amongst KRAS wild-type PDAC (8-10%) (Aguirre A J., Clin. Cancer Res. 2019 August; 25(15)). NRG1 is the predominant ligand of ERBB3. These fusion proteins drive tumor progression through aberrant ERBB3 activation. […] The patient had previously exhausted available therapies and had been treated as follows: (1) October 2019 to January 2020, FOLFIRINOX, (2) January 2020 to June 2020, FOLFIRI, (3) June 2020 to August 2020, Gemcitabine/Abraxane, (4) August 2020 to December 2020, FOLFIRI.

B1: seribantumab: anti-ERBB3 (HER3) fully human monoclonal antibody; heavy and light chains SEQ ID NOs: 12 and 13 (antibody)
heavy: EVQLLESGGGLVQPGGSLRLSCAASGFTFSHYVMAWVRQAPGKGLEWVSSISSSGGWTLYADSVKGRFTISRDNSKNTLYLQMNSLRAEDTAVYYCTRGLKMATIFDYWGQGTLVTVSSASTKGPSVFPLAPCSRSTSESTAALGCLVKDYFPEPVTVSWNSGALTSGVHTFPAVLQSSGLYSLSSVVTVPSSNFGTQTYTCNVDHKPSNTKVDKTVERKCCVECPPCPAPPVAGPSVFLFPPKPKDTLMISRTPEVTCVVVDVSHEDPEVQFNWYVDGVEVHNAKTKPREEQFNSTFRVVSVLTVVHQDWLNGKEYKCKVSNKGLPAPIEKTISKTKGQPREPQVYTLPPSREEMTKNQVSLTCLVKGFYPSDIAVEWESNGQPENNYKTTPPMLDSDGSFFLYSKLTVDKSRWQQGNVFSCSVMHEALHNHYTQKSLSLSPGK
light: QSALTQPASVSGSPGQSITISCTGTSSDVGSYNVVSWYQQHPGKAPKLIIYEVSQRPSGVSNRFSGSKSGNTASLTISGLQTEDEADYYCCSYAGSSIFVIFGGGTKVTVLGQPKAAPSVTLFPPSSEELQANKATLVCLVSDFYPGAVTVAWKADGSPVKVGVETTKPSKQSNNKYAASSYLSLTPEQWKSHRSYSCRVTHEGSTVEKTVAPAECS
In the case of B1, the “BIM expression in tumors” value ([1]; 0.75 and 1 mg seribantumab, by 2 hours) is reported as “higher levels of BIM than vehicle-treated tumors”, the “phosphorylation of HER2, HER3, AKT, and ERK1/2 in tumors” value ([1]; all doses of seribantumab (0.6, 0.75, 1 mg), single administration, 2-hour timepoint) is reported as “reduced phosphorylation” and the “BIM expression in tumors” value ([1]; all doses of seribantumab, 168-hour timepoint) is reported as “Elevated BIM was present”. The “BIM expression in tumors” value ([1]; all doses of seribantumab, after 24 hours) was “Induction of BIM expression was clearly seen”, the “HER2 phosphorylation in tumors” value ([1]; seribantumab higher doses, 168 hours) was “remained inhibited even after 168 hours” and the “HER3 and AKT phosphorylation” value [2] was “dose-dependent inhibition”. For the same molecule, the “HER3 and AKT phosphorylation” value [3] was “dose-dependent inhibition”, the “efficacy compared with afatinib” value (CH-17-0068 PDX tumors) was “equally effective as afatinib” and the “liver metastasis NTL1 liver seg 8 on CT” value ([4]; June 2021, 26×26 mm before seribantumab) was “resolved”. The “duration of ongoing treatment at data cutoff” value ([4]; one patient) was no less than 8 months and the tumor response ([4]; person, treated from December 2020) was “partial response”.
